Test results as given in US20210230238A1 (DEUTSCHES KREBSFORSCHUNGSZENTRUM STIFTUNG DES FFENTLICHEN …, published 2021).

Columns and labels:
Experiment in all cases: SPR, Dectin-1 immobilized, 1:1 model
[1] = biological target: T1, murine annexin A1 (murine, UniProt P10107 2-346)
T1 construct: Recombinant protein; also called mAnxA1
T1 sequence: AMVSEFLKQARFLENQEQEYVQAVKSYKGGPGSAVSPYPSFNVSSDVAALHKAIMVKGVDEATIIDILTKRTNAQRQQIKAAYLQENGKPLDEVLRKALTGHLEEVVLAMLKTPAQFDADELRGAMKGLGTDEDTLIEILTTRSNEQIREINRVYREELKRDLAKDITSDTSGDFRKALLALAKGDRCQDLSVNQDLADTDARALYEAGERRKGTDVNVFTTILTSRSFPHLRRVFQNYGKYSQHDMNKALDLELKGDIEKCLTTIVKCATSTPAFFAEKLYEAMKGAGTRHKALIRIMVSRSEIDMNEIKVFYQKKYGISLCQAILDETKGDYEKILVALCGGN

[2] = biological target: T2, murine annexin A1 core domain (murine, UniProt P10107 41-344)
T2 construct: Recombinant core domain; also called mAnxA1 core; core annexin A1 domain
T2 sequence: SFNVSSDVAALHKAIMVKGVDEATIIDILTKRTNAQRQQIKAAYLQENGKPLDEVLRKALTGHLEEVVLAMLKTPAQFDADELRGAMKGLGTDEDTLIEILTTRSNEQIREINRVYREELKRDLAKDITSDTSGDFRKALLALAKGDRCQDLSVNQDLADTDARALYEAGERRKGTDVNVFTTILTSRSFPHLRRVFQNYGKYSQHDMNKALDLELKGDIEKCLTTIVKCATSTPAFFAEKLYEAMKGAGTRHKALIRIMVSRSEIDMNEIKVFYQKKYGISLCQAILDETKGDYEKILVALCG

[3] = biological target: T3, murine annexin A5 (murine, UniProt P48036 2-319)
T3 construct: Recombinant protein; also called mAnxA5
T3 sequence: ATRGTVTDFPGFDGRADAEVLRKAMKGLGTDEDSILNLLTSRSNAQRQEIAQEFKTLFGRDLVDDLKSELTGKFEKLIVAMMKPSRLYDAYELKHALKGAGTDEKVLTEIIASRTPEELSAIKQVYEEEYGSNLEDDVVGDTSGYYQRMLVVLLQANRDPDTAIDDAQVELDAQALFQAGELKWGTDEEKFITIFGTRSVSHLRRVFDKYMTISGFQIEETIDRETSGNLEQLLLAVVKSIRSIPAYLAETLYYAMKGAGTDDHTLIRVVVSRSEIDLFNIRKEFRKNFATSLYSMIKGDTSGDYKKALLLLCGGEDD

[4] = biological target: T4, murine annexin A13 (murine, UniProt Q99JG3 2-317)
T4 construct: Recombinant protein; also called mAnxA13
T4 sequence: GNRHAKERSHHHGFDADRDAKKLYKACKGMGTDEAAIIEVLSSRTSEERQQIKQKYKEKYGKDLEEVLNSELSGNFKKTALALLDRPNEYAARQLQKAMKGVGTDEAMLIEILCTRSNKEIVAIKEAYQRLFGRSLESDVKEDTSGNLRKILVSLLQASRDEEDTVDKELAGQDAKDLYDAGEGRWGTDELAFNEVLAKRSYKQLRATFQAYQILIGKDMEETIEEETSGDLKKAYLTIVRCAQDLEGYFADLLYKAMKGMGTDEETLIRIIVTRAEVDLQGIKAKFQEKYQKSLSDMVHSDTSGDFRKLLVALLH

Measured: Kd

B1: Dectin-1 (receptor)
chain: GHNSGRNPEEKDNFLSRNKENHKPTESSLDEKVAPSKASQTTGGFSQPCLPNWIMHGKSCYLFSFSGNSWYGSKRHCSQLGAHLLKIDNSKEFEFIESQTSSHRINAFWIGLSRNQSEGPWFWEDGSAFFPNSFQVRNTAPQESLLHNCVWIHGSEVYNQICNTSSYSICEKEL
~100 nM: [1] | [2] | [3] | [4]
